From doi:10.1101/2025.09.11.675134, “Biodistribution-Driven Discovery Identifies a Glycosidase-Cleavable Linker to Reprogram Radiotheranostics” (bioRxiv, 2025)
Where two headings read alike, the source gives them in different places.

Legend:
[1] = Ex vivo biodistribution of 225Ac-labeled variants in AR42J tumor-bearing mice; settings: athymic nu/nu, mouse, total radioactivity; for tissue uptake at 24 h: 24 h post-injection
Method: Prior to conducting targeted alpha-particle therapy studies using three ^225Ac-labeled variants (Fig. S17) in AR42J xenograft-bearing mice, we first assessed their in vivo pharmacokinetics through ex vivo biodistribution studies at 24 h post-injection (Fig. 5A; Tables S4). […]
For studies involving three variants (DOTA -TATE, DOTA-MVK(ε)-TATE, and DOTA-β-Gal-TATE), AR42J cells (5 × 10^6 cells per mouse) were subcutaneously inoculated into the right shoulder of the mice. Tumors were allowed to grow for 3 weeks, reaching a volume of 100 –200 mm³ before being used in subsequent experiments. […]
All samples […]
were weighed and counted on a gamma counter (2480 Wizard 3, Perkin Elmer Inc., Waltham, MA, USA). Results are presented as percentage of injected activity per gram (%IA/g) and mean values ± standard deviations. […]
Prior to conducting alpha particle therapy, biodistribution studies with 225Ac-labeled DOTA - TATE variants (117 – 163 kBq, 1 μg) were performed at 24 hours and 4 days post -injection in athymic nu/nu mice bearing AR42J tumors (n = 4 – 5). Mice were euthanized by CO 2 asphyxiation, and 10 tissues, including tumors, were collected. All samples were weighed and counted on a gamma counter after equilibration for 12 hours. Results are presented as %IA/g and mean values ± standard deviations.

AR42J xenografts = experiment: Dosimetry estimates of 225Ac-labeled variants from biodistribution data; type: in vivo, athymic nu/nu mice; settings: mouse, in vivo
Excerpt: To evaluate the organ-level radiation absorbed dose resulting from different DOTA-TATE derivatives, we calculated the total effective dose per unit of injected activity (Eff Dose/IA, mSv/MBq) for ^225Ac-labeled variants based on biodistribution data in AR42J xenograft-bearing mice (Tables S5).
Estimated absorbed doses for individual organs for ^225Ac- and ^86Y-labeled DOTA-TATE variants were derived from residence times calculated using %IA/g data from biodistribution studies. The time–activity curves incorporated data from both radionuclides to provide complete coverage of early and late time points. Details of the dosimetry methodology, including time–activity curve construction, integration approach, decay assumptions, and conversion to effective dose, are provided in the Supplementary Information.
Dosimetry: The dosimetry was calculated by measuring the residence time per gram for each organ using the percent injected activity per gram (%IA/g) data collected for the biodistribution study. Because two biodistribution data sample groups were collected, one for the 86Y and the other for the 225Ac variant of the three DOTA-TATE variants (DOTA-TATE, DOTA-MVK(ε)- TATE, and DOTA-β-Gal-TATE) the %IA/g time activity curves (TAC) of the 86Y variant were merged with the 225Ac TACs. This was possible because of the difference in half lives between 86Y and 225Ac being 14.74 and 237.8 hours respectively setting the measurement time points to be 1, 4 and 24 hours for the 86Y ligands and 24, 96 hours for 225Ac. The full time activity curve is thus made up of the 1 and 4 hour time points of the 86Y %IA/g data points, an average of the common 24 hour time point of the 86Y and 225Ac %IA/g data points and the last 96 hour %IA/g time point of the 225Ac samples. The full 4 time points of 1, 4, 24, and 96 hours making up the […]
from which the residence times were calculated.
The integration of the TAC was performed using trapezoidal interpolation between time points.
The first time point assumed constant activity and a decay curve with the half life of the radioisotope was used to estimate activity beyond 96 hours. The average %IA/g was used for each tissue sample for each time point and the resulting standard deviation of the average was then used as the error estimate per time point to propagate through the residence time calculation.
Using the residence time for each TAC, the dose was calculated by looking up the dose per decay for each alpha, beta (positron and electron from nuclear beta decay) and electron emission listed in the nuclear data sheets provided by the Brookhaven National Laboratory National Nuclear Data Center. Since the 225Ac decays via a complicated decay chain, it is assumed that the dose from the daughters remains in the tissue assuming no biological dissemination once the 225Ac decays breaking the bonds of the DOTA-TATE ligand. The following mean dose per decay were used. For 225Ac, 27.58MeV/Bq-s for alpha emissions, 1.33MeV/Bq-s for beta plus electron emissions. For 86Y, 0.219 MeV/Bq-s for beta and electron emissions. Gamma emissions were ignored because of the small size of the tissue samples have small gamma absorption effects which would contribute negligibly to the dose calculation. Furthermore, dosimetry estimate […]
inter organ activity can be calculated(62).
To estimate the effective dose in mSv/MBq, a radiological factor of 5 was used to multiply the dose calculated from the alpha ionizations while a factor of 1 was used for the beta and electron ionizations to convert from mGy/MBq to mSv/MBq (63, 64).

[2] = Histopathology (H&E) after two-cycle therapy; type: in vivo, athymic nu/nu mice; settings: mouse, in vivo
Method: To further assess tissue-level toxicity at the conclusion of the two-cycle therapy study, kidneys, livers, spleens, and tumors from representative mice were collected and evaluated histologically using hematoxylin and eosin (H&E) staining. Microscopic pathology was assessed and recorded in the MHL Pathology Database (Zaphod) according to a standardized five-point grading scale (normal, minimal, mild, moderate, marked). Terminology and criteria for pathological findings were consistent with the INHAND (International Harmonization of Nomenclature and Diagnostic Criteria) guidelines developed by the Society of Toxicologic Pathology.
At the conclusion of the two-cycle therapy study, kidneys, livers, spleens, and tumors from representative mice were collected and processed for histological evaluation using hematoxylin and eosin (H&E) staining. Microscopic pathology was assessed and recorded in the MHL Pathology Database (Zaphod) using a standardized five-point ordinal grading system (normal, minimal, mild, moderate, marked). Terminology and diagnostic criteria were consistent with the International Harmonization of Nomenclature and Diagnostic Criteria (INHAND) guidelines established by the Society of Toxicologic Pathology (https://www.toxpath.org/inhand.asp)([57]).

## CSCC[C@H](NC(=O)CN1CCN(CC(=O)O)CCN(CC(=O)O)CCN(CC(=O)O)CC1)C(=O)N[C@H](C(=O)N[C@@H](CCCCNC(=O)CCCC(=O)N[C@H](Cc1ccccc1)C(=O)N[C@H]1CSSC[C@@H](C(=O)N[C@H](C(=O)O)[C@@H](C)O)NC(=O)[C@H]([C@@H](C)O)NC(=O)[C@H](CCCCN)NC(=O)[C@@H](Cc2c[nH]c3ccccc23)NC(=O)[C@H](Cc2ccc(O)cc2)NC1=O)C(=O)O)C(C)C [^225Ac-DOTA-MVK(ε)-TATE, metal not drawn]
[1]; iv, 1 ug, 225Ac-labeled, AR42J tumor-bearing mice, ex vivo, mean (± SD), n = 4–5, read-out: Kidney uptake
  tissue uptake at 24 h: 1.27 ± 0.25 %ID/g
[1]; iv, 1 ug, 225Ac-labeled, AR42J tumor-bearing mice, ex vivo, mean (± SD), n = 4–5, read-out: Liver uptake
  tissue uptake at 24 h: 0.61 ± 0.06 %ID/g
[1]; iv, 1 ug, 225Ac-labeled, AR42J tumor-bearing mice, ex vivo, mean (± SD), n = 4–5, read-out: Tumor uptake
  tissue uptake at 24 h: 3.83 ± 0.51 %ID/g
[1]; iv, 1 ug, 225Ac-labeled, AR42J tumor-bearing mice, ex vivo, mean, n = 4–5, read-out: Femur uptake
  tissue uptake at 24 h: 0.33 %ID/g
[1]; iv, 1 ug, 225Ac-labeled, AR42J tumor-bearing mice, ex vivo, mean, n = 4–5, read-out: Intestine uptake
  tissue uptake at 24 h: 0.11 %ID/g
[1]; iv, 1 ug, 225Ac-labeled, AR42J tumor-bearing mice, ex vivo, mean, n = 4–5, read-out: Spleen uptake
  tissue uptake at 24 h: 0.32 %ID/g
[1]; iv, 1 ug, 225Ac-labeled, AR42J tumor-bearing mice, i.v. 1 μg (117–163 kBq), ex vivo gamma counting, mean, n = 4–5, read-out: Blood uptake
  tissue uptake at 24 h: 0.03 %ID/g
[1]; iv, 1 ug, 225Ac-labeled, AR42J tumor-bearing mice, 4 days post-injection, ex vivo, mean, n = 4–5, read-out: Blood uptake
  tissue uptake at 96 h: 0.03 %ID/g
[1]; iv, 1 ug, 225Ac-labeled, AR42J tumor-bearing mice, 4 days post-injection, ex vivo, mean, n = 4–5, read-out: Femur uptake
  tissue uptake at 96 h: 0.32 %ID/g
[1]; iv, 1 ug, 225Ac-labeled, AR42J tumor-bearing mice, 4 days post-injection, ex vivo, mean, n = 4–5, read-out: Intestine uptake
  tissue uptake at 96 h: 0.07 %ID/g
[1]; iv, 1 ug, 225Ac-labeled, AR42J tumor-bearing mice, 4 days post-injection, ex vivo, mean, n = 4–5, read-out: Kidney uptake
  tissue uptake at 96 h: 0.43 %ID/g
[1]; iv, 1 ug, 225Ac-labeled, AR42J tumor-bearing mice, 4 days post-injection, ex vivo, mean, n = 4–5, read-out: Liver uptake
  tissue uptake at 96 h: 0.42 %ID/g
[1]; iv, 1 ug, 225Ac-labeled, AR42J tumor-bearing mice, 4 days post-injection, ex vivo, mean, n = 4–5, read-out: Muscle uptake
  tissue uptake at 96 h: 0.15 %ID/g
[1]; iv, 1 ug, 225Ac-labeled, AR42J tumor-bearing mice, 4 days post-injection, ex vivo, mean, n = 4–5, read-out: Spleen uptake
  tissue uptake at 96 h: 0.19 %ID/g
[1]
  tissue to tissue ratio at 24 h: 3.05 ± 0.37
  tissue to tissue ratio at 96 h: 5.72 ± 0.91
  tissue uptake at 96 h: 2.41 ± 0.22 %ID/g
[1]; 225Ac-labeled, AR42J tumor-bearing mice, ex vivo, mean, n = 4–5, read-out: Heart uptake
  tissue uptake at 24 h: 0.08 %ID/g
[1]; 225Ac-labeled, AR42J tumor-bearing mice, ex vivo, mean, n = 4–5, read-out: Lung uptake
  tissue uptake at 24 h: 0.14 %ID/g
[1]; 225Ac-labeled, AR42J tumor-bearing mice, ex vivo, mean, n = 4–5, read-out: Muscle uptake
  tissue uptake at 24 h: 0.09 %ID/g
[1]; 225Ac-labeled, AR42J tumor-bearing mice, 4 days post-injection, ex vivo, mean, n = 4–5, read-out: Heart uptake
  tissue uptake at 96 h: 0.12 %ID/g
[1]; 225Ac-labeled, AR42J tumor-bearing mice, 4 days post-injection, ex vivo, mean, n = 4–5, read-out: Lung uptake
  tissue uptake at 96 h: 0.11 %ID/g
AR42J xenografts
  Absorbed dose to kidney: 5.7 Gy
  Absorbed dose to tumor: 20.4 Gy
  Reduction of kidney dose versus 225Ac-DOTA-TATE: 65 to 70%
  Total effective dose per injected activity, Blood: 3.44E+03 mSv/MBq
  Total effective dose per injected activity, Femur: 4.19E+04 mSv/MBq
  Total effective dose per injected activity, Heart: 1.06E+04 mSv/MBq
  Total effective dose per injected activity, Intestine: 2.36E+04 mSv/MBq
  Total effective dose per injected activity, Kidney: 1.85 × 10^5 mSv/MBq
  Total effective dose per injected activity, Liver: 1.02E+05 mSv/MBq
  Total effective dose per injected activity, Lung: 1.95E+04 mSv/MBq
  Total effective dose per injected activity, Muscle: 7.16E+03 mSv/MBq
  Total effective dose per injected activity, Spleen: 2.55E+04 mSv/MBq
  Total effective dose per injected activity, Tumor: 6.64 × 10^5 mSv/MBq
[2]
  Glomerulopathy, percentage of mice with grade 0: 50%
  Glomerulopathy, percentage of mice with grade 1+: 50%
  Mice with mild, focal hepatocyte injury: 1 of 6
  Tubular damage, percentage of mice with grade 0: 67%
  Tubular damage, percentage of mice with grade 1+: 17%
  Tubular damage, percentage of mice with grade 3+: 17%
